# Experimental data taken from patent publication US20250163145A1 (SHIONOGI, published 2025).
# Substitutions are numbered along the chain they refer to. Where no end group is shown, it is not given here.
# T1: epitope peptide Cys-CE3C long (also: biotin label, site not given here)
# T1 peptide: CSVNVDKQPKYEYSL
# T2: Cys-hCE3C peptide (CQPKYEYSL), hCE3C peptide of human Nav1.7 with an added N-terminal Cys (human, also: biotin-labeled, site not given here)
# T2 construct: Residues 1424-1431 of human Nav1.7 (UniProtKB Q15858) plus an N-terminal Cys; also called immunogenic peptide; immunogen peptide
# T2 peptide: CQPKYEYSL
# B1: h15H11 heavy chain CDR mutant A101V (antibody, human IgG4 S228P, kappa, name in Kabat numbering, V domains shown)
# VH: QVQLVQSGSELKKPGASVKVSCKASGYTFTDYNMHWVRQAPGRSLEWMGRINPKNGVINSNEKFKDRFVFSLDTSVSTAYLQISSLKAEDTAVYYCAPSYYGGNTDVYWGQGTLVTVSS
# VL: DIVLTQSPASLAVSPGQRATITCRASESVDNYGISFMNWFQQKPGQPPKLLIYAASSQGSGVPARFSGSGSGTDFTLTINPMEANDTANYYCQQSKEFPWTFGGGTKVEIKR
# notes: hIgG4Pro/hIgK
# B2: h15H11 light chain CDR mutant Q90N (antibody, human IgG4 S228P, kappa, name in Kabat numbering, V domains shown)
# VH: B1 VH with V107A
# VL: B1 VL with Q94N
# notes: hIgG4Pro/hIgK
# B3: h15H11 light chain CDR mutant W96Y (antibody, human IgG4 S228P, kappa, name in Kabat numbering, V domains shown)
# VH: B1 VH with V107A
# VL: B1 VL with W100Y
# notes: hIgG4Pro/hIgK
# B4: h15H11 heavy chain CDR mutant M34L (antibody, human IgG4 S228P, kappa, name in Kabat numbering, V domains shown)
# VH: B1 VH with M34L, V107A
# VL: B1 VL
# notes: hIgG4Pro/hIgK
# B5: h15H11 light chain CDR mutant P95G (antibody, human IgG4 S228P, kappa, name in Kabat numbering, V domains shown)
# VH: B1 VH with V107A
# VL: B1 VL with P99G
# notes: hIgG4Pro/hIgK
# B6: mouse monoclonal antibody 15H11 (antibody, V domains shown)
# VH: EVQLQQSGPELLKPGASVKISCKASGYTFTDYNMHWVKQSHGRSLEWIGRINPKNGVINSNEKFKDKATLTVDKSLSTAYMDLRSLTSEDSAVYFCAPSYYGGNTDAYWGHGTLVTVSA
# VL: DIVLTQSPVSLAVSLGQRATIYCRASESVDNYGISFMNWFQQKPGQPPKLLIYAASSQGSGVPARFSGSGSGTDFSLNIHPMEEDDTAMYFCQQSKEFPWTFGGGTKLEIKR
# notes: Mouse hybridoma antibody; also called mouse 15H11
# B7: h15H11-47 (antibody, human IgG4 S228P, kappa, V domains shown)
# VH: B1 VH with N59L, N104D, T105D, V107A
# VL: B1 VL with E27D, M37L, N85F
# notes: hIgG4Pro/hIgK
# B8: h15H11-46 (antibody, human IgG4 S228P, kappa, V domains shown)
# VH: B1 VH with N59L, N104D, T105D, V107A
# VL: B1 VL with E27D, M37L, N85Q
# notes: hIgG4Pro/hIgK
# B9: h15H11-54 (antibody, human IgG4 S228P, kappa, V domains shown)
# VH: B1 VH with N59L, N104D, T105D, V107A
# VL: B1 VL with E27D, M37L, D86P
# notes: hIgG4Pro/hIgK
# B10: h15H11-48 (antibody, human IgG4 S228P, kappa, V domains shown)
# VH: B1 VH with N59L, N104D, T105D, V107A
# VL: B1 VL with E27D, M37L, N85L
# notes: hIgG4Pro/hIgK
# B11: h15H11-45 (antibody, human IgG4 S228P, kappa, V domains shown)
# VH: B1 VH with N59L, N104D, T105D, V107A
# VL: B1 VL with E27D, M37L, N85A
# notes: hIgG4Pro/hIgK
# B12: h15H11-51 (antibody, human IgG4 S228P, kappa, V domains shown)
# VH: B1 VH with N59L, N104D, T105D, V107A
# VL: B1 VL with E27D, M37L, N85D
# notes: hIgG4Pro/hIgK
# B13: h15H11-53 (antibody, human IgG4 S228P, kappa, V domains shown)
# VH: B1 VH with N59L, N104D, T105D, V107A
# VL: B1 VL with E27D, M37L, N85G
# notes: hIgG4Pro/hIgK
# B14: h15H11-50 (antibody, human IgG4 S228P, kappa, V domains shown)
# VH: B1 VH with N59L, N104D, T105D, V107A
# VL: B1 VL with E27D, M37L, N85I
# notes: hIgG4Pro/hIgK
# B15: h15H11-44 (antibody, human IgG4 S228P, kappa, V domains shown)
# VH: B1 VH with N59L, N104D, T105D, V107A
# VL: B1 VL with E27D, M37L, N85E
# notes: hIgG4Pro/hIgK
# B16: h15H11-52 (antibody, human IgG4 S228P, kappa, V domains shown)
# VH: B1 VH with N59L, N104D, T105D, V107A
# VL: B1 VL with E27D, M37L, N85R
# notes: hIgG4Pro/hIgK
# B17: h15H11-49 (antibody, human IgG4 S228P, kappa, V domains shown)
# VH: B1 VH with N59L, N104D, T105D, V107A
# VL: B1 VL with E27D, M37L, N85V
# notes: hIgG4Pro/hIgK
# Target: T1, epitope peptide Cys-CE3C long
# Experiment: competitive ELISA (Example 5)
# Protocol: (§1) A diluted solution of the obtained recombinant humanized antibody, a biotin-labeled immunogen peptide, and Streptavidin-HRP (manufactured by PIERCE) were added to an anti-human IgG antibody-immobilized plate, and reacted overnight at 4° C. […] Next, a recombinant human antibody at the dilution rate, a biotin-labeled immunogen peptide, and Streptavidin-HRP (manufactured by PIERCE) were added. At the same time, a dilution series of unlabeled immunogenic peptide was added and reacted overnight at 4° C. After washing twice with ELISA wash buffer, TMB-Substrate Chromogen (manufactured by Thermo Fisher Scientific) was added to develop color, the reaction was stopped with an equal amount of 0.5N sulfuric acid, and the absorbance at 450 nm was measured. The concentration of the unlabeled peptide which attenuated the signal of the biotin-labeled peptide by half was defined as the affinity (IC50).
row,Binder,binding result
1,B1,no binding (tested: below the detection limit)
2,B2,no binding (tested: below the detection limit)
3,B3,no binding (tested: below the detection limit)
4,B4,no binding (tested: below the detection limit)
5,B5,no binding (tested: below the detection limit)

# Target: T2, Cys-hCE3C peptide (CQPKYEYSL), hCE3C …
# Experiment: ELISA, hybridoma supernatant on anti-mouse IgG plate, biotin-labeled Cys-hCE3C + streptavidin-HRP
# Protocol: Three days after the final immunization, the spleen was removed, splenocytes and mouse myeloma cells (p3x6363-Ag8, Tokyo Oncology Institute) were fused by the PEG-method, and selection was made in a medium containing hypoxanthine, aminopterin and thymidine. Human Nav1.7-binding antibodies were identified by performing ELISA against immunogenic peptides using hybridoma culture supernatants. Specifically, hybridoma culture supernatant was added to an anti-mouse IgG antibody immobilized plate, washed twice with ELISA wash buffer, and biotin-labeled immunogenic peptide (Cys-hCE3C) and Streptavidin-HRP (manufactured by PIERCE) was added and reacted overnight at 4° C. After washing twice with ELISA wash buffer and developing color by adding TMB-Substrate Chromogen (manufactured by Thermo Fisher Scientific), the reaction was stopped with an equal volume of 0.5N sulfuric acid, and the absorbance at 450 nm was measured.
row,binding result,Binder
1,binds,B6

# Target: T1, epitope peptide Cys-CE3C long
# Experiment: competitive ELISA, unlabeled vs biotin-labeled peptide, antibody on anti-human IgG plate
# Protocol: as §1
# Mutants (h15H11-44 to 54) in which various mutations were introduced into the light chain human framework sequence of h15H11-2 (heavy chain variable region: IGHV7-4-1 Q43R, G44S, N58L, N100D, T100aD, R94P (SEQ ID NO: 33)/light chain variable region: IGKV7-3 E27D, M33L, Y36F, V78M (SEQ ID NO: 55)) produced in Example 7 were produced. Affinity evaluation was performed on the produced mutants by the method described in Example 5.
row,IC50,Binder
1,0.53 nM,B7
2,0.5 nM,B8
3,0.72 nM,B9
4,0.51 nM,B10
5,0.5 nM,B11
6,0.63 nM,B12
7,0.55 nM,B13
8,0.55 nM,B14
9,0.51 nM,B15
10,0.5 nM,B16
11,0.62 nM,B17
